Read-outs that look alike come from different tables or passages of the source.
Columns and labels:
[1] = target: human GLP-1 (hGLP-1) receptor (human) (UniProt P43220)
[2] = target: human GLP-1 (hGLP-1) receptor (human) (UniProt P43220); remark: listed apart in the source

Chain of human GLP-1 (hGLP-1) receptor (human) (P43220 24-463): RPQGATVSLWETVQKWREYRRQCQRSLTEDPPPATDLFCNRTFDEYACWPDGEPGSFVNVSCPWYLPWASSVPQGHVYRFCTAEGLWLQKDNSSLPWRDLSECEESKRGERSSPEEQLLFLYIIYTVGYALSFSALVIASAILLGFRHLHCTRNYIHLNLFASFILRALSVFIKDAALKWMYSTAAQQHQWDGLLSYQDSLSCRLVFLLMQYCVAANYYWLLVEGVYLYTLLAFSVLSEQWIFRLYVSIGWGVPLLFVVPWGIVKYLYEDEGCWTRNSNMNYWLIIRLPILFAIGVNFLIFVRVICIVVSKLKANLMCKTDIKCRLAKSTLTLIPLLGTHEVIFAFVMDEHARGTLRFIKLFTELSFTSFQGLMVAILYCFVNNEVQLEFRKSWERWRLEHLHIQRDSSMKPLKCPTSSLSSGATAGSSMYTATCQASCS

Substance | hGLP-1 cAMP* [1] | hGLP-1 cAMP* [2]
[Aib^2, Nle^14, β-Ala^29, Arg^30]Exendin-4(1-30)-NH2 (peptide) | 90 | –
[Aib^2,29, Nle^14, Arg^30]Exendin-4(1-30)-NH2 (peptide) | – | 95
[Aib^2, Nle^14]Exendin-4(1-39)-NH2 (peptide) | 62 | –
